Target: PD-1-Fc (UniProt Q15116 25-167, limits assumed)
Test: cell-based or functional assay

Sequence of PD-1-Fc (Q15116 25-167 limits assumed): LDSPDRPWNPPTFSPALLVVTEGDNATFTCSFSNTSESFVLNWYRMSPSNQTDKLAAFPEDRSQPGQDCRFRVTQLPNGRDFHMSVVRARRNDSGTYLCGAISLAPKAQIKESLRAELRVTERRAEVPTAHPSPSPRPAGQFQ

B1: AF4404 (other)
heavy 1: QVQLVESGGGVVQPGRSLRLDCKASGITFSNSGMHWVRQAPGKGLEWVAVIWYDGSKRYYADSVKGRFTISRDNSKNTLFLQMNSLRAEDTAVYYCATNDDYWGQGTLVTVSSAKTTAPSVYPLAPVCGDTTGSSVTLGCLVKGYFPEPVTLTWNSGSLSSGVHTFPAVLQSDLYTLSSSVTVTSSTWPSQSITCNVAHPASSTKVDKKIEPRGPTIKPCPPCKCPAPNAAGGPSVFIFPPKIKDVLMISLSPIVTCVVVDVSEDDPDVQISWFVNNVEVHTAQTQTHREDYNSTLRVVSALPIQHQDWMSGKEFKCKVNNKDLGAPIERTISKPKGSVRAPQVYVLPPPEEEMTKKQVTLTCMVTDFMPEDIYVEWTNNGKTELNYKNTEPVLDSDGSYFMYSDLRVEKKNWVERNSYSCSVVHEGLHNHHTTESFSRTPGGGGGSGGGGSGGGGSAPTSSSTKKTQLQLEHLLLDLQMILNGINNYKNPKLTDMLTFEFYMPKKATELKHLQCLERELKPLEEVLNLAQSKNFHLRPRDLISNINVIVLELKGSETTFMCEYADETATIVEFLNRWITFCQSIISTLT
heavy 2: QVQLVESGGGVVQPGRSLRLDCKASGITFSNSGMHWVRQAPGKGLEWVAVIWYDGSKRYYADSVKGRFTISRDNSKNTLFLQMNSLRAEDTAVYYCATNDDYWGQGTLVTVSSAKTTAPSVYPLAPVCGDTTGSSVTLGCLVKGYFPEPVTLTWNSGSLSSGVHTFPAVLQSDLYTLSSSVTVTSSTWPSQSITCNVAHPASSTKVDKKIEPRGPTIKPCPPCKCPAPNAAGGPSVFIFPPKIKDVLMISLSPIVTCVVVDVSEDDPDVQISWFVNNVEVHTAQTQTHREDYNSTLRVVSALPIQHQDWMSGKEFKCKVNNKDLGAPIERTISKPKGSVRAPQVYVLPPPEKEMTKKQVSLTCLVKDFMPEDIYVEWTNNGKTELNYKNTEPVLKSDGSYFMYSKLTVEKKNWVERNSYSCSVVHEGLHNHHTTKSFSRTPGGGGGSGGGGSGGGGSGGGGSQVQLVQSGAEVKKPGASVKVSCKASGYTFTDYYMHWVRQAPGQGLEWMGIINPRAGYTSYALKFQGRVTMTRDTSTSTVYMELSSLRSEDTAVYYCTSGWDVWGQGTLVTVSSASGGGGSGGGGSGGGGSHASDIQMTQSPSSLSASVGDRVTITCRASQSISTWLAWYQQKPGKAPKLLIYAASSLDSGVPSRFSGSGSGTDFTLTISSLQPEDFATYYCQQSYSFPVTFGQGTKVEIKGGGSGGGSHHHHHH
light: EIVLTQSPATLSLSPGERATLSCRASQSVSSYLAWYQQKPGQAPRLLIYDASNRATGIPARFSGSGSGTDFTLTISSLEPEDFAVYYCQQSSNWPRTFGQGTKVEIKRADAAPTVSIFPPSSEQLTSGGASVVCFLNNFYPKDINVKWKIDGSERQNGVLNSWTDQDSKDSTYSMSSTLTLTKDEYERHNSYTCEATHKTSTSPIVKSFNRNEC
IL-2 activity EC50, HEK-Blue IL-2 reporter cells, PD-1 coated wells: 0.026 nM
IL-2 activity EC50, HEK-Blue IL-2 reporter cells, control wells: 0.064 nM

From US20240366776A1 (Hoffmann-La Roche, published 2024)
